# Source: IntAct's records for PubMed 19766572
# B1: Peroxiredoxin-1 (Gallus gallus (Chicken)), P0CB50 (parent)
# chain: MSSGKAFIGKPAPDFTATAVMPDGQFKDIKLSDYRGKYVVFFFYPLDFTFVCPTEIIAYSDRADEFKKINCEIIGASVDSHFCHLAWINTPKKQGGLGTMKIPLVSDTKRVIAKDYGVLKEDEGIAYRGLFIIDEKGILRQITINDLPVGRSVDETLRLVQAFQFTDKHGEVCPAGWKPGSDTIKPDVQKSKEYFSKQK
# partner: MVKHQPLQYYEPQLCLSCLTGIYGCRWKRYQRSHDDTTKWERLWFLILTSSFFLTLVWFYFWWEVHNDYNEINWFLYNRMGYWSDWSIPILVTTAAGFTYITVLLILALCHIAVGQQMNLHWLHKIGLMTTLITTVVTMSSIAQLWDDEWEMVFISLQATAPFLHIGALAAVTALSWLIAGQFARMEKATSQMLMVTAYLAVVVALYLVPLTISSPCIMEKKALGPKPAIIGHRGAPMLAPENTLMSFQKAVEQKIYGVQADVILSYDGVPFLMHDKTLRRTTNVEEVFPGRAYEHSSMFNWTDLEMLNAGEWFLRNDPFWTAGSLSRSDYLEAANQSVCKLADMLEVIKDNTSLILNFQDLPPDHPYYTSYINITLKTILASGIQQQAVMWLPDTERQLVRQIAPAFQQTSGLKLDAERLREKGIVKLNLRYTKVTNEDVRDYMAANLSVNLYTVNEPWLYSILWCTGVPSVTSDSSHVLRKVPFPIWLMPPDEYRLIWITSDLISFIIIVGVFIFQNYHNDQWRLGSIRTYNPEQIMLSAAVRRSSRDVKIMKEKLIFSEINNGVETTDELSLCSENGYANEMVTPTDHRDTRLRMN
# Variants of: B1
# Settings: with gdpd5_chick GDPD5, Q3KTM2
row,effect of a mutation on the interaction,Variant
1,disrupting interaction,MSSGKAFIGKPAPDFTATAVMPDGQFKDIKLSDYRGKYVVFFFYPLDFTFVSPTEIIAYSDRADEFKKINCEIIGASVDSHFCHLAWINTPKKQGGLGTMKIPLVSDTKRVIAKDYGVLKEDEGIAYRGLFIIDEKGILRQITINDLPVGRSVDETLRLVQAFQFTDKHGEVSPAGWKPGSDTIKPDVQKSKEYFSKQK [C52S;C173S]
